Experimental data published in publication PMC5714956, “Insight into the molecular recognition mechanism of the coactivator NCoA1 by STAT6” (Scientific Reports, 2017).

T1: NCoA1 PAS-B domain 257-385 (nuclear coactivator 1) (UniProt Q15788 257-385)
T1 construct: Used unlabeled or 15N / 15N-13C labeled in the NMR samples
T1 sequence (looked up): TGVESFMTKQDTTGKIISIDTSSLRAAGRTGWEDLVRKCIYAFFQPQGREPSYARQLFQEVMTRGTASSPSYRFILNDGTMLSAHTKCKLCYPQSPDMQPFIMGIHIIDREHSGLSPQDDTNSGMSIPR


Tests used:
NCoA1 (Homo sapiens) [1] = target: NCoA1 (Homo sapiens) (UniProt Q15788); experiment: fluorescence polarization; details: cited from earlier work
NCoA1 (Homo sapiens) [2] = target: NCoA1 (Homo sapiens) (UniProt Q15788); experiment: competitive fluorescence polarization; details: cited from earlier work
[3] = target: T1, NCoA1 PAS-B domain 257-385 (nuclear …); experiment: crystal structure; X-ray structure of the NCoA-1 PAS-B domain in complex with the STAT6 783-814 peptide (PDB 5NWX); peptide added in 1.5 fold molar excess, complex purified by gel filtration (Superdex 75); details: both partners purified

Chain of NCoA1 (Homo sapiens) (Q15788 2-1441): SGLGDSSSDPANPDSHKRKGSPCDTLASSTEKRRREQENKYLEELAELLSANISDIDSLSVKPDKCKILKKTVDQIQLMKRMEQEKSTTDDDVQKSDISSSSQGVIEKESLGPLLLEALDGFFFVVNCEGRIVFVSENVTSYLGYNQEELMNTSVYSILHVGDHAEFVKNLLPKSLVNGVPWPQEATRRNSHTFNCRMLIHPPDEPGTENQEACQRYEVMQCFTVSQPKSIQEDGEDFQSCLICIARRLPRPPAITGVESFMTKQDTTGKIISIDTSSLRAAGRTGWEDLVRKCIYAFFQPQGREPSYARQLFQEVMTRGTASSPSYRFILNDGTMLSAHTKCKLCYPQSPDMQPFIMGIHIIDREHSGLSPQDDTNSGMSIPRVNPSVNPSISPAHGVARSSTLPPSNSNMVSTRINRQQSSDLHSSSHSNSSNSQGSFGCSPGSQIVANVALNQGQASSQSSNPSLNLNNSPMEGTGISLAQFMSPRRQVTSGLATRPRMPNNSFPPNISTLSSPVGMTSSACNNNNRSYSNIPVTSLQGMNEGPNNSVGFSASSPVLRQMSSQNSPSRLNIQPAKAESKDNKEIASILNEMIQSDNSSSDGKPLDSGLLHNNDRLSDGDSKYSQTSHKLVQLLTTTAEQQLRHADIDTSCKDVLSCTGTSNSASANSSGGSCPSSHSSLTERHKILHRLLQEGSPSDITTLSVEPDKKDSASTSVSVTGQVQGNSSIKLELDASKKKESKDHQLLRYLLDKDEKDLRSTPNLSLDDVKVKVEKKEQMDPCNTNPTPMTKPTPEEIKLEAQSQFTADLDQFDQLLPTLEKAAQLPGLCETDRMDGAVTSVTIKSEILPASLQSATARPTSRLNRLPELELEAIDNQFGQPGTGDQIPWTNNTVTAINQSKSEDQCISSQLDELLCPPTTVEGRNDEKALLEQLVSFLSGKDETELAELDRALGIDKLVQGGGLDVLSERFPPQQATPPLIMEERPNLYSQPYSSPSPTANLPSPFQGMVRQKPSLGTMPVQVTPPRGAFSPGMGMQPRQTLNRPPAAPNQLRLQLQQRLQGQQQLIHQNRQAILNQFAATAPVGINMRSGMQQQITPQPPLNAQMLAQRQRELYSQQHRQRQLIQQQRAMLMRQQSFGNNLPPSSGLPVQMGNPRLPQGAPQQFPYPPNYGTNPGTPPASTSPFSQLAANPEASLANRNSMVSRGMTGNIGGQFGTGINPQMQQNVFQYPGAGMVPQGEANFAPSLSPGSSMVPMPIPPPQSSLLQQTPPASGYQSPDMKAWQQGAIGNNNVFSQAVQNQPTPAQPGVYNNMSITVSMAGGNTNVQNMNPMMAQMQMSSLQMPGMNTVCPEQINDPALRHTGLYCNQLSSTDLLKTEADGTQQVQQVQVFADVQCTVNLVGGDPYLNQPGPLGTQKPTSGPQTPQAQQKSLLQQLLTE

binding result [3]	Molecule	Kd (NCoA1 (Homo sapiens) [1])	Ki (NCoA1 (Homo sapiens) [2])
–	STAT6 794-814 (from UniProt P42226)	320 nM	260 nM
–	STAT6 783-814 (from UniProt P42226)	40 nM	40 nM
binds	GTWIGEDIFPPLLPPTEQDLTKLLLEGQGESG (peptide, UniProt P42226 783-814, looked up, The His7-tag probably left with the Z-tag (the Z-tag was removed on Ni-NTA resin after TEV cleavage); Used unlabeled or 15N / 15N-13C labeled in the NMR samples; source: produced recombinantly, purified (TEV cleavage, Ni-NTA, reversed phase HPLC); not shown: Z-tag, N-terminal, cleaved) [STAT6 peptide 783-814 (fragment of the STAT6 transactivation domain with the LXXLL motif)]	–	–
